Holding throughout (test): ForteBio
Test [1] deals with SC16.39.
Test [2] deals with SC16.51.
Test [3] concerns the target SC16.46.

Chain of SC16.39 (Q9NYJ7 27-492): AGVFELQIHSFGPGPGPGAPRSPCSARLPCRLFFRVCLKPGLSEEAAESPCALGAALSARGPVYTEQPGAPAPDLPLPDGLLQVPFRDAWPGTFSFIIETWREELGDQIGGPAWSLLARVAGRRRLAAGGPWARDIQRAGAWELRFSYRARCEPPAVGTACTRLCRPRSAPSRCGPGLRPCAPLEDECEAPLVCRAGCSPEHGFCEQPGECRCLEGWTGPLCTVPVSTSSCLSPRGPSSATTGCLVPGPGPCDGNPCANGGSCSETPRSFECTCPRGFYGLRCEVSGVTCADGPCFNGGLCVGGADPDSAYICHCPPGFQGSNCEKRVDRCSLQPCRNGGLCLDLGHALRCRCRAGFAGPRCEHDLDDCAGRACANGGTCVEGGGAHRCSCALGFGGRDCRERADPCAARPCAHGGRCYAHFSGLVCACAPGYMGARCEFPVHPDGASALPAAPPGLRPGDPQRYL
Chain of SC16.51 (Q9NYJ7 27-492): as above
Chain of SC16.46 (Q9NYJ7 27-492): as above

B1: DLL3 (ligand)
chain: not shown
On to B1, for which the Kd in test [1] worked out at 1 nM; in test [2] it was 2 nM; in test [3] it was 0.5 nM.

The values are drawn from patent US20170137533A1 (published 2017).
